The source of these data is US20220325265A1, “GLUCOCEREBROSIDASE MUTANTS” (Hoffmann-la Roche Inc., priority 2019, published 2022).

What is called IC50 is the concentration that gives 50% inhibition. Read a high IC50 as weaker potency.

For series [1], the system named is H4 glioblastoma GBA-KO cells. Description: Reduction of natural substrate GlcSph in H4 GBA-KO cells (LC/MS). In kind it is cell-based, human. The note with it: 48 h, vs untreated H4 GBA-KO cells. As for the experimental part:
FIG. 9: Reduction of the natural substrate GlcSph after treatment of H4 glioblastoma GBA-KO cells with hGCase molecules. Treatment concentration (hGCase protein): 1, 10 and 100 nM, respectively. Analysis of substrate levels after 48 h of incubation via LC/MS. H4 wt cells (GCase levels normalized to 100%) and H4 GBA-KO cells (loss of GBA gene) served as control. ^1 measured glucosylsphingosine (GlcSph) levels normalized to total protein amount. ^2 H4 glioblastoma cells with knock-out GBA gene.
(§1) Human H4 glioblastoma cells (H4 cells) were taken as human neuronal model to test purified hGCase variants in a cell-based setup. H4 wild-type cells and untreated H4 GBA-KO cells (knock-out of related GCase GBA gene) were taken as references. After seeding (40000 cells/well) and incubating them for ˜24 h, the GBA-KO cells were treated with 1, 10 and 100 nM of target protein sample and incubated for either 2 h (for uptake and GCase activity measurements) or 48 h (for substrate reduction measurements) at 37° C. with 5% CO2 and constant humidity. After cell-lysis (GCase activity buffer (table 2.6)+0.1% (w/v) Triton X-100+phosphatase (Phospho stop Roche in-house)+protease inhibitor (cOmplete EDTA-free)), the uptake of the enzymes into the cells was evaluated by measuring the hGCase concentration via AlphaLISA (section 2.3.6) as well as the activity after the uptake (section 2.3.5). Samples for substrate reduction determination were hand over to Iris Ruf (SMR, see section 2.7). Due to the loss of the GCase related GBA gene in H4 GBA-KO cells, the natural substrate glucosylsphingosine (GlcSph) accumulates. The reduction of GlcSph levels due to hGCase treatment was evaluated via LC/MS by Iris Ruf (SMR).
(§2) Finally, the cellular uptake, activity and substrate reduction in human neuronal cells were determined to test the mutants' efficacy in a more cellular context. In this work, human H4 glioblastoma wild-type cells (wt) and H4 GBA-KO cells (knock-out of GCase related GBA gene) were used as a Gaucher cell model. H4 GBA-KO cells, which accumulate the natural substrate glucosylsphingosine (GlcSph) due to the loss of the GBA gene, were treated with 1, 10 and 100 nM of hGCase molecules, respectively. Activity and protein concentration (via AlphaLISA) were measured after two hours of incubation after several media wash steps. The reduction of natural substrate GlcSph was analyzed 48 h after cell treatment via LC/MS. The activity measured after uptake into the cells normalized to measured hGCase protein levels is graphed in FIG. 8. The evaluated activities are given as percentage of hGCase activity measured in wt H4 cells, set to 100%.
To determine the enzymes' efficacies, the reduction of accumulated glucosylsphingosine (GlcSph) in H4 GBA-KO cells was investigated.

Series [2] is described as follows: Activatability of hGCase mutants by phosphatidylserine. In kind it is biochemical. The note with it: 4 μM phosphatidylserine, 25 nM protein, 10 min pre-incubation at RT. As for the experimental part:
Negatively charged lipids as phosphatidylserine are known to stabilize and activate the enzyme usually in combination with Saposin C (SAP-2), since GCase is naturally interacting with the membrane of the lysosomes in vivo. For the assay, 25 nM protein and 4 μM phosphatidylserine (Avanti; 10 mM stock solution dissolved in chloroform) were tested.
After adding the lipid to the enzyme, the solution was pre-incubated for 10 min at RT before adding the substrate and initializing the enzymatic reaction. The hGCase activity without added phosphatidylserine was set to 100% relative enzyme activity. The increase in activity was expressed as X-fold the initial activity without activator.
Several physiological substances have been reported to stimulate the activity of glucocerebrosidase. GCase is naturally interacting with the membrane of the lysosomes in vivo, thus negatively charged lipids such as phosphatidylserine are known to stabilize and activate the enzyme alone or in combination with Saposin C (SAP-2) (Qi & Grabowski, 1998; Sun et al., 2002; Vaccaro et al., 1995). Thus, it is essential to preserve these properties when modifying the GCase enzyme structure. To this end, the effect of phosphatidylserine alone was evaluated as first approach. The activity levels with and without added phosphatidylserine are plotted in FIG. 6.
By translating the data into fold increase of the initial activity, a more conclusive statement can be drawn (FIG. 7).

Series [3] addresses hGCase. Description: Inhibition of hGCase using conditurol-β-epoxide (CBE), IC50 determination. The format is biochemical, human. Conditions: irreversible inhibitor conditurol-β-epoxide on the named hGCase variant; 25 nM protein, 10 min pre-incubation, 20 μM res-β-glc. On the procedure: CBE is an irreversible inhibitor of glucocerebrosidases which covalently binds to the active site of the enzyme (Liou et al., 2006).
A stock solution of 100 mM CBE in H2Oultrapure was prepared. For IC50 determination, CBE concentrations ranging from 0.04-2500 μM were tested. Again, the final enzyme concentration was 25 nM. After adding the inhibitor, the enzyme was pre-incubated for 10 min before initializing the activity measurement by adding the substrate (20 μM).
IC50 evaluations were done in the same manner as described for IFG (see section above). The IC50 calculations were done using GraphPad Prism7 following equation 9.
To determine whether the active binding site of an enzyme is compromised or altered, IC50 values were calculated for active site inhibitor and compared. In this work, the natural occurring GCase inhibitor isofagomine (IFG) and conditurol-β-epoxide (CBE) were used. IFG is known as a reversible inhibitor, interacting with the active site of the GCase enzyme, whereas CBE is an irreversible inhibitor of GCase (Powe et al., 2006). The IC50 of an enzyme is defined as the concentration of an inhibitor, where the response, in this case the enzyme activity, is reduced by half (Kalliokoski et al., 2013). Both assays were conducted as described in section 2.5.6. The inhibitor profiles of M53T/P55T using IFG and CBE as well as the IC50 profiles of all residual mutants combined are shown in FIG. 4.
The raw data was plotted by transforming the applied IFG/CBE concentration to a logarithmic scale (x-axis, FIG. 4) and by normalizing the activity signal with highest signal of each data set to 100% (defined with apparent inhibitor concentration of 10-12 μM, equal to no inhibitor). IC50 values were calculated using GraphPad Prism7 following equation 9.

The test system of series [4] is H4 glioblastoma GBA-KO cells. Description: GCase activity after uptake into H4 GBA-KO cells, normalized to hGCase protein level. The note with it: 2 h incubation. In kind it is cell-based, human. On the procedure: FIG. 8: Activity levels normalized to hGCase protein levels measured after treatment of H4 glioblastoma GBA-KO cells with hGCase molecules. Treatment concentration (hGCase protein): 1, 10 and 100 nM (100 nM not shown herein), respectively. Activity and protein amount measurement after 2 h of incubation. Activity measured with artificial substrate res-β-glc (20 μM); protein concentration determination via AlphaLISA (section 2.3.6). H4 wt cells (GCase levels normalized to 100%) and H4 GBA-KO cells (loss of GBA gene) served as control. ^1 GCase activity measured in H4 cells normalized to activity measured in H4 (wt) cells designated to 100% and normalized to protein amount. ^2 H4 glioblastoma cells with knock-out GBA gene.
as §1
as §2, with “H4 GBA-KO cells, which accumulate the natural substrate glucosylsphingosine (GlcSph) due to the loss of the GBA gene, were treated with 1, 10 and 100 nM of hGCase molecules, respectively.” left out

“And” between values parts separate entries of the source, which are not always exact repeats. Equal entries are not always repeated.

B1: R495HS2: hGCase based on the Cerezyme sequence (R495H) but produced in S2 cells, His8-tagged; Seq. Id. No. 1 (protein, listed as Homo sapiens)
chain: ARPCIPKSFGYSSVVCVCNATYCDSFDPPTFPALGTFSRYESTRSGRRMELSMGPIQANHTGTGLLLTLQPEQKFQKVKGFGGAMTDAAALNILALSPPAQNLLLKSYFSEEGIGYNIIRVPMASCDFSIRTYTYADTPDDFQLHNFSLPEEDTKLKIPLIHRALQLAQRPVSLLASPWTSPTWLKTNGAVNGKGSLKGQPGDIYHQTWARYFVKFLDAYAEHKLQFWAVTAENEPSAGLLSGYPFQCLGFTPEHQRDFIARDLGPTLANSTHHNVRLLMLDDQRLLLPHWAKVVLTDPEAAKYVHGIAVHWYLDFLAPAKATLGETHRLFPNTMLFASEACVGSKFWEQSVRLGSWDRGMQYSHSIITNLLYHVVGWTDWNLALNPEGGPNWVRNFVDSPIIVDITKDTFYKQPMFYHLGHFSKFIPEGSQRVGLVASQKNDLDAVALMHPDGSAVVVVLNRSSKDVPLTIKDPAVGFLETISPGYSIHTYLWHRQ
modifications: His8 tag
Consider B1, for which, in series [1] (10 nM treatment), the “reduction in GlcSph levels (%)” value was approximately 75% and the “reduction in GlcSph levels (fold)” value was determined as 4 fold. The “phosphatidylserine activation, fold increase of initial activity” value in series [2] turned out to be 4.9 fold. The same molecule registered an IC50 in series [3] of 55 ± 3 µM.

B2: M53T/P55T: recombinant human β-glucocerebrosidase variant R495H/M53T/P55T, S2 cells; Seq. Id. No. 7 (protein, listed as Homo sapiens)
chain: ARPCIPKSFGYSSVVCVCNATYCDSFDPPTFPALGTFSRYESTRSGRRMELSTGTIQANHTGTGLLLTLQPEQKFQKVKGFGGAMTDAAALNILALSPPAQNLLLKSYFSEEGIGYNIIRVPMASCDFSIRTYTYADTPDDFQLHNFSLPEEDTKLKIPLIHRALQLAQRPVSLLASPWTSPTWLKTNGAVNGKGSLKGQPGDIYHQTWARYFVKFLDAYAEHKLQFWAVTAENEPSAGLLSGYPFQCLGFTPEHQRDFIARDLGPTLANSTHHNVRLLMLDDQRLLLPHWAKVVLTDPEAAKYVHGIAVHWYLDFLAPAKATLGETHRLFPNTMLFASEACVGSKFWEQSVRLGSWDRGMQYSHSIITNLLYHVVGWTDWNLALNPEGGPNWVRNFVDSPIIVDITKDTFYKQPMFYHLGHFSKFIPEGSQRVGLVASQKNDLDAVALMHPDGSAVVVVLNRSSKDVPLTIKDPAVGFLETISPGYSIHTYLWHRQ
notes: recombinant human β-glucocerebrosidase variant R495H/M53T/P55T, S2 cells; Id; No. 7
As for B2, in series [1] (10 nM treatment), the “reduction in GlcSph levels (%)” value was approximately 88% and the “reduction in GlcSph levels (fold)” value was 8.3 fold. For the same molecule, in series [4] (1 nM protein treatment), the “GCase activity level normalized to H4 wt GCase activity (100%) and protein amount” value is approximately 4%. Besides, the “GCase activity level normalized to H4 wt GCase activity (100%) and protein amount” value in series [4] (10 nM protein treatment) was 26%. Moreover, the “phosphatidylserine activation, fold increase of initial activity” value in series [2] is 6.5 fold. Besides, the IC50 in series [3] was ~76 µM and 76 µM.

B3: imiglucerase (protein, UniProt P04062 40-536, looked up, variant R495H)
Lysosomal acid …: ARPCIPKSFGYSSVVCVCNATYCDSFDPPTFPALGTFSRYESTRSGRRMELSMGPIQANHTGTGLLLTLQPEQKFQKVKGFGGAMTDAAALNILALSPPAQNLLLKSYFSEEGIGYNIIRVPMASCDFSIRTYTYADTPDDFQLHNFSLPEEDTKLKIPLIHRALQLAQRPVSLLASPWTSPTWLKTNGAVNGKGSLKGQPGDIYHQTWARYFVKFLDAYAEHKLQFWAVTAENEPSAGLLSGYPFQCLGFTPEHQRDFIARDLGPTLANSTHHNVRLLMLDDQRLLLPHWAKVVLTDPEAAKYVHGIAVHWYLDFLAPAKATLGETHRLFPNTMLFASEACVGSKFWEQSVRLGSWDRGMQYSHSIITNLLYHVVGWTDWNLALNPEGGPNWVRNFVDSPIIVDITKDTFYKQPMFYHLGHFSKFIPEGSQRVGLVASQKNDLDAVALMHPDGSAVVVVLNRSSKDVPLTIKDPAVGFLETISPGYSIHTYLWHRQ
modifications: imiglucerase; CHO-produced
notes: Commercially available Cerezyme (imiglucerase, Genzyme), hGCase R495H produced in CHO cells
Regarding B3, the “reduction in GlcSph levels (%)” value in series [1] (1 nM treatment) turned out to be 82%; in series [1] (10 nM treatment), 97%. Also, the “GCase activity level normalized to H4 wt GCase activity (100%) and protein amount” value in series [4] (1 nM protein treatment) turned out to be 4%; in series [4] (10 nM protein treatment), 44%. Also, in series [2], the “phosphatidylserine activation, fold increase of initial activity” value is given as 11.5 fold. Further, the IC50 in series [3] stood at 60 ± 3 µM.
